For this experiment, the target named is sim3-GFP (Arabidopsis thaliana) (UniProt P93002). Description: sim3-GFP IP, LC-MS/MS.
Chain of sim3-GFP (Arabidopsis thaliana) (P93002 other isoform, or with tags, fused parts or gaps): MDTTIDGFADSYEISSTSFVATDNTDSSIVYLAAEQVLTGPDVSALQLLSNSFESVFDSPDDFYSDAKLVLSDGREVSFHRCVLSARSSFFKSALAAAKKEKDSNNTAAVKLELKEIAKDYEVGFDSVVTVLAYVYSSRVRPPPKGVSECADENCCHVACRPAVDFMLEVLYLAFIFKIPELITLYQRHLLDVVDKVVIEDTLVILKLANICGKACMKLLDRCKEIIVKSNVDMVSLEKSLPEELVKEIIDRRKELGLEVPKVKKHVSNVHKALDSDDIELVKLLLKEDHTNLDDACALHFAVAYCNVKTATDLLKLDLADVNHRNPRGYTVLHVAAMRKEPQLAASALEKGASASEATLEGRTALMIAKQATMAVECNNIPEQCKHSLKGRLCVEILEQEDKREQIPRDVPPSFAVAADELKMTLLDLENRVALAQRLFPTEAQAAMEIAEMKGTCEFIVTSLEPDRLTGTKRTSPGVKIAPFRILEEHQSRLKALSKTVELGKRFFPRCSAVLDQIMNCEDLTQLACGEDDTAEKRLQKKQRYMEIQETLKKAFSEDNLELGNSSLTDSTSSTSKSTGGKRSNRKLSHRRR

IMPA1, importin alpha isoform 1 came in with a Normalized Fold Change: SA vs Mock of 2.09 fold.
“Leucine-rich repeat (LRR) family protein (AT5G45510)” displayed a Normalized Fold Change: SA vs Mock of 5.05 fold.
In turn, “Leucine-rich repeat (LRR) family protein (AT5G45520)” displayed a Normalized Fold Change: SA vs Mock of 2270 fold.
“NAD(P)-binding Rossmann-fold superfamily protein (AT2G29320)” gave a Normalized Fold Change: SA vs Mock of 40 fold.
“NAD(P)-binding Rossmann-fold superfamily protein (AT4G13180)” came in with a Normalized Fold Change: SA vs Mock of 5.46 fold.
Under “NPR2, NPR1-like protein 2 (from UniProt Q9SZI3 1-600)” stands 16.7 fold; under “NPR3, NPR1-like protein 3 (from UniProt Q8L746 1-586)”, 9.4 fold; under NRP1, nodulin-related protein 1, 14.3 fold.
For the molecule OPR1, 12-oxophytodienoate reductase 1, the Normalized Fold Change: SA vs Mock worked out at 4110 fold.
With “P-loop containing nucleoside triphosphate hydrolases superfamily protein (AT2G28620)” the figure was 7.17 fold; with “P-loop containing nucleoside triphosphate hydrolases superfamily protein (AT3G28510)”, 6.35 fold; with “P-loop containing nucleoside triphosphate hydrolases superfamily protein (AT3G28540)”, 9.62 fold.
On to “P-loop containing nucleoside triphosphate hydrolases superfamily protein (AT5G17760)”, for which the Normalized Fold Change: SA vs Mock is 4790 fold.
“PAD3, Cytochrome P450 superfamily protein (from UniProt Q9LW27 1-490)” showed a Normalized Fold Change: SA vs Mock of 14.6 fold.
With “PCNA2, proliferating cell nuclear antigen 2” the figure was 2.83 fold; with PLP2, phospholipase A 2A, 3.96 fold; with “PR1, pathogenesis-related gene 1 (from UniProt P33154 27-161)”, 3.65 fold.
For PRH75, DEAD box RNA helicase (PRH75), the Normalized Fold Change: SA vs Mock was determined as 5.9 fold.
With PTEN 2 the figure was 2.24 fold.
Under RD19A, Papain family cysteine protease stands 3.14 fold.
Regarding “RHD3, Root hair defective 3 GTP-binding protein (RHD3)”, the Normalized Fold Change: SA vs Mock turned out to be 2.86 fold.
Under RNA helicase family protein (AT1G27900) stands 1960 fold.
On to RNA helicase family protein (AT3G62310), for which the Normalized Fold Change: SA vs Mock stood at 7.18 fold.
Regarding RNR1, ribonucleotide reductase 1, the Normalized Fold Change: SA vs Mock amounted to 2180 fold.
With ROC3, rotamase CYP 3, the Normalized Fold Change: SA vs Mock came out at 5.75 fold.
With “S-adenosyl-L-methionine-dependent methyltransferases superfamily protein (AT1G55450)” the figure was 2.24 fold; with “S-adenosyl-L-methionine-dependent methyltransferases superfamily protein (AT2G32160)”, 3.44 fold.
SAG2, aleurain-like protease displayed a Normalized Fold Change: SA vs Mock of 4.08 fold.
With SCPL27, serine carboxypeptidase-like 27 the figure was 5810 fold; with “SIRANBP, Pleckstrin homology (PH) domain superfamily protein”, 709 fold.
With “SOUL-1, SOUL heme-binding family protein” the figure was 2.93 fold; with SQE3, squalene epoxidase 3, 50.1 fold.
Under “TOC34, translocon at the outer envelope membrane of chloroplasts 34” stands 9.76 fold.
In turn, “TOC86, translocon at the outer envelope membrane of chloroplasts 159” had a Normalized Fold Change: SA vs Mock of 3.61 fold.
With TPS10, trehalose phosphate synthase the figure was 2100 fold; with “TTG1, Transducin/WD40 repeat-like superfamily protein (from UniProt Q9XGN1 1-341)”, 3.34 fold.
As for “Transducin/WD40 repeat-like superfamily protein (AT3G15610)”, the Normalized Fold Change: SA vs Mock was 2.26 fold.
With “Transducin/WD40 repeat-like superfamily protein (AT3G45620)” the figure was 3.67 fold; with “Transducin/WD40 repeat-like superfamily protein (AT3G50590)”, 3400 fold; with “UBA1, ubiquitin-activating enzyme 1 (from UniProt P93028 1-1080)”, 3.32 fold.
With UBQ6, ubiquitin 6 the figure was 2.04 fold; with WAK4, wall associated kinase 4, 8.98 fold.

B1: RPP1, Disease resistance protein (TIR-NBS-LRR class) family (protein, UniProt F4J339 1-1194, looked up)
Probable disease resistance protein RPP1: MGSVMSLGCSKRKATNQDVDSESRKRRKICSTNDAENCRFIQDESSWKHPWSLCANRVISVAAVALTNFRFQQDNQESNSSSLSLPSPATSVSRNWKHDVFPSFHGADVRRTFLSHIMESFRRKGIDTFIDNNIERSKSIGPELKEAIKGSKIAIVLLSRKYASSSWCLDELAEIMKCRQMVGQIVMTIFYEVDPTDIKKQTGEFGKAFTKTCRGKPKEQVERWRKALEDVATIAGYHSHSWRNEADMIEKISTDVSNMLNSFTPSRDFDGLVGMRAHMDMLEQLLRLDLDEVRMIGIWGPPGIGKTTIARFLFNQVSDRFQLSAIMVNIKGCYPRPCFDEYSAQLQLQNQMLSQMINHKDIMISHLGVAQERLRDKKVFLVLDEVDQLGQLDALAKETRWFGPGSRIIITTEDLGVLKAHGINHVYKVEYPSNDEAFQIFCMNAFGQKQPHEGFDEIAWEVTCLAGELPLGLKVLGSALRGKSKREWERTLPRLKTSLDGKIGSIIQFSYDVLCDEDKYLFLYIACLFNGESTTKVKELLGKFLDVKQGLHLLAQKSLISFDGERIHMHTLLEQFGRETSRKQFVHHGFTKRQLLVGARGICEVLDDDTTDSRRFIGIHLELSNTEEELNISEKVLERVHDFHFVRIDASFQPERLQLALQDLIYHSPKIRSLNWYGYESLCLPSTFNPEFLVELDMRSSNLRKLWEGTKQLRNLKWMDLSYSSYLKELPNLSTATNLEELKLRNCSSLVELPSSIEKLTSLQILDLENCSSLEKLPAIENATKLRELKLQNCSSLIELPLSIGTATNLKQLNISGCSSLVKLPSSIGDITDLEVFDLSNCSSLVTLPSSIGNLQNLCKLIMRGCSKLEALPININLKSLDTLNLTDCSQLKSFPEISTHISELRLKGTAIKEVPLSIMSWSPLADFQISYFESLMEFPHAFDIITKLHLSKDIQEVPPWVKRMSRLRDLSLNNCNNLVSLPQLSDSLDYIYADNCKSLERLDCCFNNPEIRLYFPKCFKLNQEARDLIMHTCIDAMFPGTQVPACFIHRATSGDSLKIKLKESPLPTTLRFKACIMLVKVNEELMSYDQTPMIVDIVIRDEHNDLKEKIYPSIYPSIYPLLTEHIYTFELDVEEVTSTELVFEFPQLNKRNWKIGECGILQRETRSLRRSSSPDLSPESSRVSSYDHCLRGD
Regarding B1, the Normalized Fold Change: SA vs Mock was 13.7 fold.

B2: HDA15, histone deacetylase 15 (protein, UniProt Q8GXJ1 1-552, looked up)
Histone deacetylase 15: MVVETIERSCEGSKRRHVNGGDIAVPCSGEECSNGDINVAPGVSAKRARVSREMTFEDIYGADALLNDDDDEDDDCDWEPVQAPMEFVKWCCVNCTMSNPGDMVHCCICGEHKESGILRHGYLASPFFKDTGLIEVEEKYGGSSSATSSTAVGFDERMLLHSEFEVKAQPHPERPDRLRAIAASLATAGVFPGRCLPINAREITKQELQMVHTSEHVDAVDTTSQLLYSYFTSDTYANEYSARAARLAAGLCADLATDIFTGRVKNGFALVRPPGHHAGVRHAMGFCLHNNAAVAALVAQAAGAKKVLIVDWDVHHGNGTQEIFEQNKSVLYISLHRHEGGNFYPGTGAADEVGSNGGEGYCVNVPWSCGGVGDKDYIFAFQHVVLPIASAFSPDFVIISAGFDAARGDPLGCCDVTPAGYSRMTQMLGDLCGGKMLVILEGGYNLRSISASATAVIKVLLGENPENELPIATTPSVAGLQTVLDVLNIQLEFWPSLAISYSKLLSELEARLIENKKNQMKRKVVRVPTWWKWGRKKLLYNFLSARMISRSK
B2 displayed a Normalized Fold Change: SA vs Mock of 2570 fold.

(Values after patent US20230227838A1, “ENHANCED CELL SURVIVAL AGAINST BIOTIC AND ABIOTIC STRESSES THROUGH SALICYLICK ACID-INDUCED NPR1 CONDENSATES” (priority 2020, published 2023).)
